Target: recombinant CD47 protein (Homo sapiens, UniProt Q08722)
Experiment: SPR, CD47 conjugated to CM5 chip
Conditions: 250 RU CD47, 1:1 binding model
Description: Specifically, the recombinant CD47 protein was conjugated to the surface of the CM5 chip by a target SPR reaction of 250 RU through an EDC-NHS reaction to be used, and for HBS-P, the sensogram obtained through a process of association for 3 minutes and dissociation for 10 minutes at a flow rate of 30 μL/minutes was analyzed with the BiaEvaluation software using a 1:1 binding model and global fitting.

Sequence of recombinant CD47 protein (Q08722 19-323): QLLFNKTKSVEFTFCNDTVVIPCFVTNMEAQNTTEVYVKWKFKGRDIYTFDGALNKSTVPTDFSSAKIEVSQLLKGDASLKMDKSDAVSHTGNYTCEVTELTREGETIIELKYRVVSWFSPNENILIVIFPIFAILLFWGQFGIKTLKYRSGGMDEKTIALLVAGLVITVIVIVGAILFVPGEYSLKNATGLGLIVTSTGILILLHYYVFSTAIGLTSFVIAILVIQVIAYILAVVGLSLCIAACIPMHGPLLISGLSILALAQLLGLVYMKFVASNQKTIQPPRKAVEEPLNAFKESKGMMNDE

For “Sirpα: pure Sirpa (SEQ ID NO: 25), water-soluble domain of the original CD47 ligand”, the ka was 610000 M⁻¹ s⁻¹, the kd was 0.37 s⁻¹ and the Kd (listed as Sirpa(wt)) was 280 nM.

Source: US20230285589A1, “LIPOSOME COMPLEX FOR CANCER TREATMENT, COMPRISING NOVEL CD47 BINDER AND POLYNUCLEOTIDE” (priority 2020, published 2023)
